According to US8586357B2, “Markers of definitive endoderm” (ViaCyte, Inc., priority 2003, dated 2013):

Assays:
Type in all cases: cell-based, human
[1] = system: hESCs; experiment: AFP antibody-labeled cell number by flow cytometry; conditions: presence vs absence of activin A; FIGS. 9A-B
From the text: As a further evidence of the specificity of the SOX17^hi/AFP^lo/TM^lo/SPARC^lo marker profile as predictive of definitive endoderm, SOX17 and AFP gene expression was quantitatively compared to the relative number of antibody labeled cells.

[2] = system: hESCs (hESCyt-25); experiment: Q-PCR gene expression assay of marker genes in differentiating hESCs; conditions: for suppression of AFP gene expression: in comparison to no treatment (10% FBS alone), FIG. 8A
Experimental: In the following experiments, real-time quantitative RT-PCR (Q-PCR) was the primary assay used for screening the effects of various treatments on HESC differentiation. In particular, real-time measurements of gene expression were analyzed for multiple marker genes at multiple time points by Q-PCR. Marker genes characteristic of the desired as well as undesired cell types were evaluated to gain a better understanding of the overall dynamics of the cellular populations. The strength of Q-PCR analysis includes its extreme sensitivity and relative ease of developing the necessary markers, as the genome sequence is readily available. Furthermore, the extremely high sensitivity of Q-PCR permits detection of gene expression from a relatively small number of cells within a much larger population. In addition, the ability to detect very low levels of gene expression provides indications for “differentiation bias” within the population. The bias towards a particular differentiation pathway, prior to the overt differentiation of those cellular phenotypes, is unrecognizable using immunocytochemical techniques. […] Additionally, Q-PCR provides a mechanism by which to evaluate the success of a differentiation protocol in a quantitative format at semi-high throughput scales of analysis.
The approach taken here was to perform relative quantitation using SYBR Green chemistry on a Rotor Gene 3000 instrument (Corbett Research) and a two-step RT-PCR format. Such an approach allowed for the banking of cDNA samples for analysis of additional marker genes in the future, thus avoiding variability in the reverse transcription efficiency between samples.
Primers were designed to lie over exon-exon boundaries or span introns of at least 800 bp when possible, as this has been empirically determined to eliminate amplification from contaminating genomic DNA.
We routinely used Q-PCR to measure the gene expression of multiple markers of target and non-target cell types in order to provide a broad profile description of gene expression in cell samples. The markers relevant for the early phases of hESC differentiation (specifically ectoderm, mesoderm, definitive endoderm and extra-embryonic endoderm) and for which validated primer sets are available are provided below in Table 1. […] This is an important fact since the hESCs were often grown on mouse feeder layers. Most typically, triplicate samples were taken for each condition and independently analyzed in duplicate to assess the biological variability associated with each quantitative determination.
To generate PCR template, total RNA was isolated using RNeasy (Qiagen) and quantitated using RiboGreen (Molecular Probes). Reverse transcription from 350-500 ng of total RNA was carried out using the iScript reverse transcriptase kit (BioRad), which contains a mix of oligo-dT and random primers. Each 20 μL reaction was subsequently diluted up to 100 μL total volume and 3 μL was used in each 10 μL Q-PCR reaction containing 400 nM forward and reverse primers and 5 μL 2×SYBR Green master mix (Qiagen). Two step cycling parameters were used employing a 5 second denature at 85-94° C. (specifically selected according to the melting temp of the amplicon for each primer set) followed by a 45 second anneal/extend at 60° C. Fluorescence data was collected during the last 15 seconds of each extension phase. A three point, 10-fold dilution series was used to generate the standard curve for each run and cycle thresholds (Ct's) were converted to quantitative values based on this standard curve. The quantitated values for each sample were normalized to housekeeping gene performance and then average and standard deviations were calculated for triplicate samples. At the conclusion of PCR cycling, a melt curve analysis was performed to ascertain the specificity of the reaction. A single specific product was indicated by a single peak at the Tm appropriate for that PCR amplicon. […]

[3] = system: hESCs; experiment: Immunocytochemistry: SOX17, AFP and TM antibody labeling of differentiating hESCs
From the text: As described in detail herein, the SOX17 antibody was utilized to specifically examine effects of various treatments and differentiation procedures aimed at the production of SOX17 positive definitive endoderm cells. Other antibodies reactive to AFP, SPARC and Thrombomodulin were also employed to rule out the production of visceral and parietal endoderm (extra-embryonic endoderm).
As evidence that the SOX17 antibody is specific for human SOX17 protein and furthermore marks definitive endoderm, partially differentiated hESCs were co-labeled with SOX17 and AFP antibodies. […] However, AFP and SOX7 are not expressed in definitive endoderm cells at levels detectable by ICC, and thus, they be can employed as negative markers for bonifide definitive endoderm cells. It was shown that SOX17 antibody labels populations of cells that exist as discrete groupings of cells or are intermingled with AFP positive cells. […] Similarly, since parietal endoderm has also been reported to express SOX17, antibody co-labeling with SOX17 together with the parietal markers SPARC and/or Thrombomodulin (TM) can be used to identify the SOX17^+ cells which are parietal endoderm. As shown in FIGS. 6A-C, Thrombomodulin and SOX17 co-labelled parietal endoderm cells were produced by random differentiation of hES cells.
With the SOX17 antibody and Q-PCR tools described above we have explored a number of procedures capable of efficiently programming ESCs to become SOX17^hi/AFP^lo/SPARC/TM^lo definitive endoderm cells. We applied a variety of differentiation protocols aimed at increasing the number and proliferative capacity of these cells as measured at the population level by Q-PCR for SOX17 gene expression and at the level of individual cells by antibody labeling of SOX17 protein.
To determine the effect of TGFβ factor treatment at the individual cell level, a time course of TGFβ factor addition was examined using SOX17 antibody labeling. As previously shown in FIGS. 10A-F, there was a dramatic increase in the relative number of SOX17 labeled cells over time.
In these experiments, hESCs were differentiated by growing in RPMI medium (Invitrogen, Carlsbad, Calif.; cat#61870-036) supplemented with 0.5%, 2.0% or 10% FBS and either with or without 100 ng/mL activin A for 6 days. In addition, a gradient of FBS ranging from 0.5% to 2.0% over the first three days of differentiation was also used in conjunction with 100 ng/mL of activin A. After the 6 days, replicate samples were collected from each culture condition and analyzed for relative gene expression by real-time quantitative PCR. The remaining cells were fixed for immunofluorescent detection of SOX17 protein.

B1: Activin A: growth factor of the TGFβ superfamily, Nodal/Activin subgroup; definitive endoderm inducer (protein, UniProt P08476 311-426, looked up)
Inhibin beta A chain: GLECDGKVNICCKKQFFVSFKDIGWNDWIIAPSGYHANYCEGECPSHIAGTSGSSLSFHSTVINHYRMRGHSPFANLKSCCVPTKLRPMSMLYYDDGQNIIKKDIQNMIVEECGCS
decrease in AFP antibody-labeled cell number [1]: approximately 7 fold | SOX17 gene expression, dose response ([2]; 0, 10, 30 or 100 ng/ml, 3 days adherent then 1, 3 and 5 days suspension culture, FIG. 11): dose-dependently increases | relative levels of CXCR4 gene expression with increasing dose ([2]; 0, 10 or 100 ng/mL, 7 days, FIG. 32): dramatically increased | CXCR4 expression ([2]; 100 ng/mL activin A (A100) vs no exogenous activin A (NF), 6 days, FIG. 26): high | CXCR4 level ([2]; 100 ng/mL activin A, 10% FBS condition, 6 days, FIG. 26): remarkable decrease | mesoderm differentiation (expression of brachyury) ([2]; 100 ng/ml, FIG. 14B): notable suppression | SOX17 induction compared to no factor medium controls ([2]; 4-day time point, 10% serum): 5 fold | expression of brachyury relative to untreated control cultures ([2]; 10 and 30 ng/ml, later time points, FIG. 14B): maintain the expression of brachyury at later time points | SOX17 gene expression relative to the undifferentiated control media (SR20) ([2]; FIG. 7A): increases | difference in the level of SOX17 mRNA expression, Activin A vs retinoic acid treated hESCs ([2]; FIG. 7A): 10 fold | expression of the visceral endoderm marker AFP, dose response ([2]; FIG. 13A): dose-dependent decrease | expression of the neural marker ZIC1 ([2]; FIG. 14A): not a dose-dependent effect | expression of MIXL1, GATA4 and HNF3b, dose response ([2]; FIGS. 12A-C): dose-dependent increases | expression of SOX7 (primitive endoderm) and SPARC (parietal endoderm) ([2]; FIGS. 13B-C): remain either unchanged or exhibit suppression at some time points | induction of SOX17 gene expression vs. undifferentiated hESCs ([2]; day 4 of differentiation, Activin A at 100 ng/ml, medium with 10% serum, FIG. 19): 19 fold | SOX17 gene expression and cell number ([2]; doses of 100 ng/mL or more): potently inducing | suppression of AFP gene expression [2]: 6.8 fold | suppression of AFP gene expression ([2]; listed as activin A): approximately 7 fold | difference in SOX17 antibody-labeled cell number, Activin A vs retinoic acid treated hESCs ([3]; FIG. 7B): 10 fold | SOX17+ cell number, dose response ([3]; FIG. 22): dose-dependent increase | frequency of SOX17+ cells ([3]; high dose activin A, FBS at 10% (v/v), 6 days): much lower frequency | distribution of SOX17+ cells in the culture ([3]; high dose activin A, low FBS concentration (0.5%-2.0%), 6 days): ubiquitously distributed
